Data published in the supplement of paper PMC9112550, “Optimization of the antimicrobial peptide Bac7 by deep mutational scanning” (BMC Biology, 2022).

Test system: Escherichia coli TOP10
Assay: shrunken log2 fold change of peptide-encoding DNA abundance (4.5 h post-induction vs induction); higher = less antimicrobial activity (less host growth inhibition)
Settings: time post-induction: 4.5 h; library: site-saturation at positions 5, 18, 19, 20
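Note: peptides expressed intracellularly from a pBAD plasmid library in pooled LB shake-flask culture, induced with 0.3% L-arabinose, DNA abundance read by NGS, three biological replicates, DESeq2 with apeglm shrinkage.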

| Sequence | shrunken log2 fold change |
| --- | --- |
| RRIRERPPRLPRPRPRPGWNPRP | 0.277 |
| RRIRERPPRLPRPRPRPGYEPRP | -0.00204 |
| RRIRERPPRLPRPRPRPGYNPRP | -0.0871 |
| RRIRERPPRLPRPRPRPHCAPRP | 0.201 |
| RRIRERPPRLPRPRPRPHCMPRP | -0.235 |
| RRIRERPPRLPRPRPRPHEEPRP | 0.13 |
| RRIRERPPRLPRPRPRPHFHPRP | -0.597 |
| RRIRERPPRLPRPRPRPHGDPRP | -0.0135 |
| RRIRERPPRLPRPRPRPHHCPRP | -0.0231 |
| RRIRERPPRLPRPRPRPHHEPRP | -0.191 |
| RRIRERPPRLPRPRPRPHHRPRP | -0.145 |
| RRIRERPPRLPRPRPRPHLQPRP | -0.206 |
| RRIRERPPRLPRPRPRPHPAPRP | 0.039 |
| RRIRERPPRLPRPRPRPHPIPRP | -0.0808 |
| RRIRERPPRLPRPRPRPHQCPRP | -0.262 |
| RRIRERPPRLPRPRPRPHRDPRP | -0.063 |
| RRIRERPPRLPRPRPRPHTWPRP | -0.33 |
| RRIRERPPRLPRPRPRPHVMPRP | -0.957 |
| RRIRERPPRLPRPRPRPHYCPRP | -0.0425 |
| RRIRERPPRLPRPRPRPHYIPRP | -0.133 |
| RRIRERPPRLPRPRPRPIAGPRP | 0.0426 |
| RRIRERPPRLPRPRPRPIDEPRP | 0.0844 |
| RRIRERPPRLPRPRPRPIEIPRP | -0.186 |
| RRIRERPPRLPRPRPRPIEMPRP | -0.0653 |
| RRIRERPPRLPRPRPRPIEVPRP | -0.00196 |

| Sequence | shrunken log2 fold change |
| --- | --- |
| RRIRERPPRLPRPRPRPIFPPRP | -0.367 |
| RRIRERPPRLPRPRPRPIFSPRP | 0.0654 |
| RRIRERPPRLPRPRPRPIHEPRP | 0.0218 |
| RRIRERPPRLPRPRPRPIHSPRP | -1.52 |
| RRIRERPPRLPRPRPRPIHVPRP | -0.274 |
| RRIRERPPRLPRPRPRPILDPRP | -0.209 |
| RRIRERPPRLPRPRPRPILKPRP | -0.401 |
| RRIRERPPRLPRPRPRPIPEPRP | -0.882 |
| RRIRERPPRLPRPRPRPIPFPRP | -0.0238 |
| RRIRERPPRLPRPRPRPIQMPRP | -0.14 |
| RRIRERPPRLPRPRPRPIRNPRP | -0.343 |
| RRIRERPPRLPRPRPRPIRVPRP | -0.679 |
| RRIRERPPRLPRPRPRPISAPRP | -0.214 |
| RRIRERPPRLPRPRPRPISTPRP | -0.346 |
| RRIRERPPRLPRPRPRPISYPRP | -0.0746 |
| RRIRERPPRLPRPRPRPITAPRP | -0.573 |
| RRIRERPPRLPRPRPRPITEPRP | -0.159 |
| RRIRERPPRLPRPRPRPITNPRP | -0.409 |
| RRIRERPPRLPRPRPRPIVAPRP | 0.33 |
| RRIRERPPRLPRPRPRPIWEPRP | 0.0512 |
| RRIRERPPRLPRPRPRPIWFPRP | 0.0591 |
| RRIRERPPRLPRPRPRPIWNPRP | -0.0842 |
| RRIRERPPRLPRPRPRPIYDPRP | -0.137 |
| RRIRERPPRLPRPRPRPKCAPRP | 0.0581 |
| RRIRERPPRLPRPRPRPKCHPRP | -0.428 |

| Sequence | shrunken log2 fold change |
| --- | --- |
| RRIRERPPRLPRPRPRPKCIPRP | -0.464 |
| RRIRERPPRLPRPRPRPKCMPRP | -0.0455 |
| RRIRERPPRLPRPRPRPKCVPRP | 0.0364 |
| RRIRERPPRLPRPRPRPKDHPRP | -0.323 |
| RRIRERPPRLPRPRPRPKDMPRP | 0.00303 |
| RRIRERPPRLPRPRPRPKDPPRP | 0.0145 |
| RRIRERPPRLPRPRPRPKFHPRP | -0.554 |
| RRIRERPPRLPRPRPRPKGIPRP | -0.000842 |
| RRIRERPPRLPRPRPRPKGQPRP | 0.132 |
| RRIRERPPRLPRPRPRPKGSPRP | 0.00854 |
| RRIRERPPRLPRPRPRPKHCPRP | 0.0411 |
| RRIRERPPRLPRPRPRPKIEPRP | -0.151 |
| RRIRERPPRLPRPRPRPKIPPRP | -0.136 |
| RRIRERPPRLPRPRPRPKISPRP | 0.000121 |
| RRIRERPPRLPRPRPRPKKFPRP | -0.524 |
| RRIRERPPRLPRPRPRPKLDPRP | -0.052 |
| RRIRERPPRLPRPRPRPKMAPRP | 2.39 |
| RRIRERPPRLPRPRPRPKQPPRP | 0.236 |
| RRIRERPPRLPRPRPRPKQWPRP | 0.0081 |
| RRIRERPPRLPRPRPRPKRNPRP | -0.114 |
| RRIRERPPRLPRPRPRPKRQPRP | -0.0958 |
| RRIRERPPRLPRPRPRPKTGPRP | -0.0863 |
| RRIRERPPRLPRPRPRPKVAPRP | 0.0804 |
| RRIRERPPRLPRPRPRPKVIPRP | -0.0206 |
| RRIRERPPRLPRPRPRPKVWPRP | 0.332 |
